Measured values as given in PMC11230231 (bioRxiv, 2024).

Target: integrin α5β1 on cells (human (endogenous in K562 and MCF10A), UniProt P08648;P05556)
Test: flow cytometry on cells

integrin α5β1 on cells, sequence (P08648 42-1049, chain 1 of 2): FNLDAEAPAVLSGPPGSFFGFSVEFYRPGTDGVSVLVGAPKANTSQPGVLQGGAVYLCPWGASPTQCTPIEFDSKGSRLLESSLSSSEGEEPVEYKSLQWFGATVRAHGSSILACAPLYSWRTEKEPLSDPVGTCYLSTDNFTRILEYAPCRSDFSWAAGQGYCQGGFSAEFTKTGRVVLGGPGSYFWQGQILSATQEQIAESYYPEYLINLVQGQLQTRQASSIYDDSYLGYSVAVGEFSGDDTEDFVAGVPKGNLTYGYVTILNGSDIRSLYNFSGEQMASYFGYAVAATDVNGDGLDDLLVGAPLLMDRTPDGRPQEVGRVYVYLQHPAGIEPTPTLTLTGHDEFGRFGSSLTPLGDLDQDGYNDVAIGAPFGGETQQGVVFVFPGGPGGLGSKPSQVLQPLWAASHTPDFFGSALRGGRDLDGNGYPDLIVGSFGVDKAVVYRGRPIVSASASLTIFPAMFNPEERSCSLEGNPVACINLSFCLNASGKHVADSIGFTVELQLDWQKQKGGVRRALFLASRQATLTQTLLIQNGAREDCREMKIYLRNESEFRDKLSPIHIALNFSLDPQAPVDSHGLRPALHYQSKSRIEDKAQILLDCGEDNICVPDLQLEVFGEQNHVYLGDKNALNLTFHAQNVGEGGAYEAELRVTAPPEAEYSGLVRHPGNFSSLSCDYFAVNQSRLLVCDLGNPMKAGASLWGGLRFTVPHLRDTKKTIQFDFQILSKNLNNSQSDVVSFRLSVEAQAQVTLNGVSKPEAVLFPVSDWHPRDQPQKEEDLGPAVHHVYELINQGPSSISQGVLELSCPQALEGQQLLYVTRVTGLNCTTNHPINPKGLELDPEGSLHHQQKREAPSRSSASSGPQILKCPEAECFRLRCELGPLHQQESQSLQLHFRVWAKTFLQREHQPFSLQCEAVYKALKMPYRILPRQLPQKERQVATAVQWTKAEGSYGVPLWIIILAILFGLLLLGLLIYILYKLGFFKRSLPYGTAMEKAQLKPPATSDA
integrin α5β1 on cells, sequence (P05556 21-798, chain 2 of 2): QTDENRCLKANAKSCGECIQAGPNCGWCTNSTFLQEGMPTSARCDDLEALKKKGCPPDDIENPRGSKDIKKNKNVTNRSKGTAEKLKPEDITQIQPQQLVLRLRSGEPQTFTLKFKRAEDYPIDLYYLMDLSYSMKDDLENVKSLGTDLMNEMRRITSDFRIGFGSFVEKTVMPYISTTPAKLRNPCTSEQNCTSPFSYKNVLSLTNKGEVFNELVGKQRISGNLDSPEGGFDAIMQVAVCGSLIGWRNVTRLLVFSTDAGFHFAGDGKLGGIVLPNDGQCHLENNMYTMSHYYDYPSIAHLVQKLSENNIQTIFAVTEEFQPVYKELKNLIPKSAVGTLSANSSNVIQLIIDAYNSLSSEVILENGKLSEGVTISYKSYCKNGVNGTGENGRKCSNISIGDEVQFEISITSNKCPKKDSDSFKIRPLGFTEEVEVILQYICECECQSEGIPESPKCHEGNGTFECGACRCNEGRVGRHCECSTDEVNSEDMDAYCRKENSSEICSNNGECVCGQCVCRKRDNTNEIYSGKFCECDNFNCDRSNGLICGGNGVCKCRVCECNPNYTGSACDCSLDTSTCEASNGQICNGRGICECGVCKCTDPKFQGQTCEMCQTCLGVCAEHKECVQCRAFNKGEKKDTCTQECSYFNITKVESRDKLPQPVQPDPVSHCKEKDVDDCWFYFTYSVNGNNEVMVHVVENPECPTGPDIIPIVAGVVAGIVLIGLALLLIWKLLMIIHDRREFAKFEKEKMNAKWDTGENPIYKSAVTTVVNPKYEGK

B1: RGD peptide (GRRGDGATGH) (peptide)
peptide: GRRGDGATGH
- Kd: 150 ± 20 µM
